This test relates to PBMCs from LTBI donors (IFN-γ production). It counts as cell-based, human. Conditions: ex vivo IFN-γ ELISPOT; for Resp. freq.: fraction of 28 LTBI donors responding to epitopes of the antigen; for Total SFC: total spot-forming cells, LTBI donors.

B1: Rv0690c: MTB protein, novel CD4 T cell antigen; Conserved hypotheticals (protein, listed as Mycobacterium tuberculosis)
chain: MTGTEHLVHTLRSQGRVCTSSGSPMYRELLELVAADVESGGVFASILADQKGAPEGQAVPLRLLGGLHRMVLDGRAPVLRRWYPSTGGTWQAEAAWPDIVRTATDQPESLRAALDRPPQTNEVGRSAALIGGLLIACLQFDLPIRLFEIGSSAGLNLRPDRYRYRYLGGEWGLADSPVRIDNAWLGELPPTATVRIVERHGYDIAPIDVTSPDGELNALSYIWPDQTDRLERLRGAIAVARNIPADLHRQAAHAAVAGMTLTDDALTVLWHSITWQYLPADERAAIRAGIDALAAQADAHCPFVHLTLEPAHQRPGAQIKYLVRMRSWPGGHARVLGECHPHGPPVTWQ
For the molecule B1, the Resp. freq. is given as 11% and the “Total SFC” value is reported as 233 SFC.

B2: Rv0278c: MTB protein, novel CD4 T cell antigen; PE/PPE (protein, listed as Mycobacterium tuberculosis)
chain: MSFVIAAPEVIAAAATDLASLGSSISAANAAAAANTTALMAAGADEVSTAIAALFGAHGQAYQALSAQAQAFHAQFVQALTSGGGAYAAAEAAAVSPLLDPINEFFLANTGRPLIGNGANGAPGTGANGGDGGWLIGNGGAGGSGAAGVNGGAGGNGGAGGNGGAGGLIGNGGAGGAGGVASSGIGGSGGAGGNAMLFGAGGAGGAGGGVVALTGGAGGAGGAGGNAGLLFGAAGVGGAGGFTNGSALGGAGGAGGAGGLFATGGVGGSGGAGSSGGAGGAGGAGGLFGAGGTGGHGGFADSSFGGVGGAGGAGGLFGAGGEGGSGGHSLVAGGDGGAGGNAGMLALGAAGGAGGIGGDGGTLTAGGIGGAGGAGGNAGLLFGSGGSGGAGGFGFADGGQGGPGGNAGTVFGSGGAGGNGGVGQGFAGGIGGAGGTPGLIGNGGNGGNGGASAVTGGNGGIGGTGVLIGNGGNGGSGGIGAGKAGVGGVSGLLLGLDGFNAPASTSPLHTLQQNVLNVVNEPFQTLTGRPLIGNGANGTPGTGADGGAGGWLFGNGANGTPGTGAAGGAGGWLFGNGGNGGHGATNTAATATGGAGGAGGILFGTGGNGGTGGIATGAGGIGGAGGAGGVSLLIGSGGTGGNGGNSIGVAGIGGAGGRGGDAGLLFGAAGTGGHGAAGGVPAGVGGAGGNGGLFANGGAGGAGGFNAAGGNGGNGGLFGTGGTGGAGTNFGAGGNGGNGGLFGAGGTGGAAGSGGSGITTGGGGHGGNAGLLSLGASGGAGGSGGASSLAGGAGGTGGNGALLFGFRGAGGAGGHGGAALTSIQQGGAGGAGGNGGLLFGSAGAGGAGGSGANALGAGTGGTGGDGGHAGVFGNGGDGGCRRVWRRYRRQRWCRRQRRADRQRRQRRQRRQSRGHARCRRHRRAAARRERTQRLAIAGRPATTRGVEGISCSPQMMP
In the case of B2, the Resp. freq. turned out to be 11% and the “Total SFC” value is recorded as 45 SFC.

B3: Rv0442c: MTB protein, novel CD4 T cell antigen; PE/PPE (protein, listed as Mycobacterium tuberculosis)
chain: MTSPHFAWLPPEINSALMFAGPGSGPLIAAATAWGELAEKLLASIASLGSVTSELTSGAWLGPSAAAMMAVATQYLAWLSTAAAQAEQAAAQAMAIATAFEAALAATVQPAVVAANRGLMQLLAATNWFGQNAPALMDVEAAYEQMWALDVAAMAGYHFDASAAVAQLAPWQQVLRNLGIDIGKNGQINLGFGNTGSGNIGNNNIGNNNIGSGNTGTGNIGSGNTGSGNLGLGNLGDGNIGFGNTGSGNIGFGITGDHQMGFGGFNSGSGNIGFGNSGTGNVGLFNSGSGNIGIGNSGSLNSGIGTSGTINAGLGSAGSLNTSFWNAGMQNAALGSAAGSEAALVSSAGYATGGMSTAALSSGILASALGSTGGLQHGLANVLNSGLTNTPVAAPASAPVGGLDSGNPNPGSGSAAAGSGANPGLRSPGTSYPSFVNSGSNDSGLRNTAVREPSTPGSGIPKSNFYPSPDRESAYASPRIGQPVGSE
On to B3, for which the Resp. freq. was found to be 11% and the “Total SFC” value came to 232 SFC.

B4: Rv0298: MTB protein, novel CD4 T cell antigen; Conserved hypotheticals (protein, listed as Mycobacterium tuberculosis)
chain: MTKEKISVTVDAAVLAAIDADARAAGLNRSEMIEQALRNEHLRVALRDYTAKTVPALDIDAYAQRVYQANRAAGS
Turning to B4, the Resp. freq. was 11% and the “Total SFC” value was 783 SFC.

B5: Rv3025c: MTB protein, novel CD4 T cell antigen; Intermediary metabolism and respiration, Island 2 (protein, listed as Mycobacterium tuberculosis)
chain: MAYLDHAATTPMHPAAIEAMAAVQRTIGNASSLHTSGRSARRRIEEARELIADKLGARPSEVIFTAGGTESDNLAVKGIYWARRDAEPHRRRIVTTEVEHHAVLDSVNWLVEHEGAHVTWLPTAADGSVSATALREALQSHDDVALVSVMWANNEVGTILPIAEMSVVAMEFGVPMHSDAIQAVGQLPLDFGASGLSAMSVAGHKFGGPPGVGALLLRRDVTCVPLMHGGGQERDIRSGTPDVASAVGMATAAQIAVDGLEENSARLRLLRDRLVEGVLAEIDDVCLNGADDPMRLAGNAHFTFRGCEGDALLMLLDANGIECSTGSACTAGVAQPSHVLIAMGVDAASARGSLRLSLGHTSVEADVDAALEVLPGAVARARRAALAAAGASR
Take B5: the Resp. freq. worked out at 14% and the “Total SFC” value was 423 SFC.

B6: Rv3012c: MTB protein, novel CD4 T cell antigen; Information pathways (protein, listed as Mycobacterium tuberculosis)
chain: MSQISRDEVAHLARLARLALTETELDSFAGQLDAILTHVSQIQAVDVTGVQATDNPLKDVNVTRPDETVPCLTQRQVLDQAPDAVDGRFAVPQILGDEQ
For the molecule B6, the Resp. freq. is 14% and the “Total SFC” value was 233 SFC.

B7: Rv0985c: MTB protein, novel CD4 T cell antigen; Cell wall and cell processes (protein, listed as Mycobacterium tuberculosis)
chain: MLKGFKEFLARGNIVDLAVAVVIGTAFTALVTKFTDSIITPLINRIGVNAQSDVGILRIGIGGGQTIDLNVLLSAAINFFLIAFAVYFLVVLPYNTLRKKGEVEQPGDTQVVLLTEIRDLLAQTNGDSPGRHGGRGTPSPTDGPRASTESQ
For B7, the Resp. freq. is given as 11% and the “Total SFC” value was found to be 70 SFC.

B8: Rv1172c: MTB protein, novel CD4 T cell antigen; PE/PPE (protein, listed as Mycobacterium tuberculosis)
chain: MSFVFAAPEALAAAAADMAGIGSTLNAANVVAAVPTTGVLAAAADEVSTQVAALLSAHAQGYQQLSRQMMTAFHDQFVQALRASADAYATAEASAAQTMVNAVNAPARALLGHPLISADASTGGGSNALSRVQSMFLGTGGSSALGGSAAANAAASGALQLQPTGGASGLSAVGALLPRAGAAAAAALPALAAESIGNAIKNLYNAVEPWVQYGFNLTAWAVGWLPYIGILAPQINFFYYLGEPIVQAVLFNAIDFVDGTVTFSQALTNIETATAASINQFINTEINWIRGFLPPLPPISPPGFPSLP
Regarding B8, the Resp. freq. came to 11% and the “Total SFC” value came to 237 SFC.

B9: Rv0987: MTB protein, novel CD4 T cell antigen; Cell wall and cell processes (protein, listed as Mycobacterium tuberculosis)
chain: MNDQAPVAYAPLWRTAWRRLRQRPFQYILLVLGIALGVAMIVAIDVSSNSAQRAFDLSAAAITGKSTHRLVSGPAGVDQQLYVDLRRHGYDFSAPVIEGYVLARGLGNRAMQFMGTDPFAESAFRSPLWSNQNIAELGGFLTRPNGVVLSRQVAQKYGLAVGDRIALQVKGAPTTVTLVGLLTPADEVSNQKLSDLIIADISTAQELFHMPGRLSHIDLIIKDEATATRIQQRLPAGVRMETSDTQRDTVKQMTDAFTVNLTALSLIALLVGIFLIYNTVTFNVVQRRPFFAILRCLGVTREQLFWLIMTESLVAGLIGTGLGLLIGIWLGEGLIGLVTQTINDFYFVINVRNVSVSAESLLKGLIIGIFAAMLATLPPAIEAMRTVPASTLRRSSLESKITKLMPWLWVAWFGLGSFGVLMLWLPGNNLVVAFVGLFSVLIALALIAPPLTRFVMLRLAPGLGRLLGPIGRMAPRNIVRSLSRTSIAIAALMMAVSLMVGVSISVGSFRQTLANWLEVTLKSDVYVSPPTLTSGRPSGNLPVDAVRNISKWPGVRDAVMARYSSVFAPDWGREVELMAVSGDISDGKRPYRWIDGNKDTLWPRFLAGKGVMLSEPMVSRQHLQMPPRPITLMTDSGPQTFPVLAVFSDYTSDQGVILMDRASYRAHWQDDDVTTMFLFLASGANSGALIDQLQAAFAGREDIVIQSTHSVREASMFIFDRSFTITIALQLVATVVAFIGVLSALMSLELDRAHELGVFRAIGMTTRQLWKLMFIETGLMGGMAGLMALPTGCILAWILVRIINVRSFGWTLQMHFESAHFLRALLVAVVAALAAGMYPAWRLGRMTIRTAIREE
With B9, the Resp. freq. came out at 11% and the “Total SFC” value is 133 SFC.

B10: Rv0299: MTB protein, novel CD4 T cell antigen; Conserved hypotheticals (protein, listed as Mycobacterium tuberculosis)
chain: MIAPGDIAPRRDSEHELYVAVLSNALHRAADTGRVITCPFIPGRVPEDLLAMVVAVEQPNGTLLPELVQWLHVAALGAPLGNAGVAALREAASVVTALLC
For the molecule B10, the Resp. freq. amounted to 14% and the “Total SFC” value is listed as 467 SFC.

B11: Rv0279c: MTB protein, novel CD4 T cell antigen; PE/PPE (protein, listed as Mycobacterium tuberculosis)
chain: MSFVIAAPEVIAAAATDLASLESSIAAANAAAAANTTALLAAGADEVSTAVAALFGAHGQAYQALSAQAQAFHAQFVQALTSGGGAYAAAEAAATSPLLAPINEFFLANTGRPLIGNGTNGAPGTGANGGDGGWLIGNGGAGGSGAAGVNGGAGGNGGAGGLIGNGGAGGAGGRASTGTGGAGGAGGAAGMLFGAAGVGGPGGFAAAFGATGGAGGAGGNGGLFADGGVGGAGGATDAGTGGAGGSGGNGGLFGAGGTGGPGGFGIFGGGAGGDGGSGGLFGAGGTGGSGGTSIINVGGNGGAGGDAGMLSLGAAGGAGGSGGSNPDGGGGAGGIGGDGGTLFGSGGAGGVCGLGFDAGGAGGAGGKAGLLIGAGGAGGAGGGSFAGAGGTGGAGGAPGLVGNAGNGGNGGASANGAGAAGGAGGSGVLIGNGGNGGSGGTGAPAGTAGAGGLGGQLLGRDGFNAPASTPLHTLQQQILNAINEPTQALTGRPLIGNGANGTPGTGADGGAGGWLFGNGGNGGHGATGADGGDGGSGGAGGILSGIGGTGGSGGIGTTGQGGTGGTGGAALLIGSGGTGGSGGFGLDTGGAGGRGGDAGLFLGAAGTGGQAALSQNFIGAGGTAGAGGTGGLFANGGAGGAGGFGANGGTGGNGLLFGAGGTGGAGTLGADGGAGGHGGLFGAGGTGGAGGSSGGTFGGNGGSGGNAGLLALGASGGAGGSGGSALNVGGTGGVGGNGGSGGSLFGFGGAGGTGGSSGIGSSGGTGGDGGTAGVFGNGGDGGAGGFGADTGGNSSSVPNAVLIGNGGNGGNGGKAGGTPGAGGTSGLIIGENGLNGL
On to B11, for which the Resp. freq. was 11% and the “Total SFC” value is recorded as 45 SFC.

(Values after patent US10703784B2, “Antigens and epitopes derived from Mycobacterium tuberculosis” (priority 2011, dated 2020).)
